The text below walks through data of publication PMC2897128 (Nature, 2010).

The stoichiometry N is a count of units in the complex or per binding partner.

The target of data set [1] is T1, Sulfolobus solfataricus SRP54 (SRP54 moiety of SRP54*) (Sulfolobus solfataricus, UniProt Q97ZE7 2-432).
T1 sequence (looked up): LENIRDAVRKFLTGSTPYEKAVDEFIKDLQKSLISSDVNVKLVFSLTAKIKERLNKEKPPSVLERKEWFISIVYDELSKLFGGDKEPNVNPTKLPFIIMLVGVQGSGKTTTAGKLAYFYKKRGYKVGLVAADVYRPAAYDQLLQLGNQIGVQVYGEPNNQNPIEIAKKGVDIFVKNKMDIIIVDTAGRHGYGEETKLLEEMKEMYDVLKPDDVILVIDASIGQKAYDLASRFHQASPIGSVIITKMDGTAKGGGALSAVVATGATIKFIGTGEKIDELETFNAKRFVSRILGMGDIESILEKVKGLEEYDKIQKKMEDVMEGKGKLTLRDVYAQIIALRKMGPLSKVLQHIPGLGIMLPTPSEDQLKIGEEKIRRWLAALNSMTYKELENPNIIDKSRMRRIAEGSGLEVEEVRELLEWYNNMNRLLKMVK
The data set is described as follows: crystal structure.

The data set “SEC” deals with the molecule itself. The data set is described as follows: SEC. For orientation: Size exclusion chromatography separates by hydrodynamic size, large species first.

As to KLIRVGIILVLLIWGTVLLLKSIPHH [signal anchor sequence from S. cerevisiae dipeptidyl-aminopeptidase B (DPAP-B)], in data set [1], the binding result was “binds”.

B1: SRP54-signal sequence fusion protein (SRP54*) with an 11mer linker (other, Sulfolobus solfataricus | S. cerevisiae)
chain: LENIRDAVRKFLTGSTPYEKAVDEFIKDLQKSLISSDVNVKLVFSLTAKIKERLNKEKPPSVLERKEWFISIVYDELSKLFGGDKEPNVNPTKLPFIIMLVGVQGSGKTTTAGKLAYFYKKRGYKVGLVAADVYRPAAYDQLLQLGNQIGVQVYGEPNNQNPIEIAKKGVDIFVKNKMDIIIVDTAGRHGYGEETKLLEEMKEMYDVLKPDDVILVIDASIGQKAYDLASRFHQASPIGSVIITKMDGTAKGGGALSAVVATGATIKFIGTGEKIDELETFNAKRFVSRILGMGDIESILEKVKGLEEYDKIQKKMEDVMEGKGKLTLRDVYAQIIALRKMGPLSKVLQHIPGLGIMLPTPSEDQLKIGEEKIRRWLAALNSMTYKELENPNIIDKSRMRRIAEGSGLEVEEVRELLEWYNNMNRLLKMVKARSGSGSGSGSKLIRVGIILVLLIWGTVLLLKSIPHH
With B1, the “stoichiometry N” value in the data set “SEC” is no less than 2.
